Test results reported in publication PMC10015519.

Columns and labels:
[1] = target: PF-W-Trimer (pre-fusion trimerized SARS-CoV-2 WA1 spike protein ectodomain fused to the Trimer Domain) (SARS-CoV-2) (UniProt P0DTC2); assay: SEC-MALS
[2] = target: PF-W-Trimer (pre-fusion trimerized SARS-CoV-2 WA1 spike protein ectodomain fused to the Trimer Domain) (SARS-CoV-2) (UniProt P0DTC2); assay: reducing and non-reducing SDS-PAGE
[3] = target: PF-D-Trimer (pre-fusion trimerized SARS-CoV-2 Delta spike protein ectodomain fused to the Trimer Domain) (SARS-CoV-2) (UniProt P0DTC2); assay: SEC-MALS
[4] = target: PF-D-Trimer (pre-fusion trimerized SARS-CoV-2 Delta spike protein ectodomain fused to the Trimer Domain) (SARS-CoV-2) (UniProt P0DTC2); assay: reducing and non-reducing SDS-PAGE

“PF-W-Trimer (pre-fusion trimerized SARS-CoV-2 WA1 spike protein ectodomain fused to the Trimer Domain) (from UniProt P0DTC2 14-1213)” showed a stoichiometry N [1] of 3 and a stoichiometry N [2] of 3.
Work on “PF-D-Trimer (pre-fusion trimerized SARS-CoV-2 Delta spike protein ectodomain fused to the Trimer Domain) (from UniProt P0DTC2 14-1213)” yielded a stoichiometry N [3] of 3 and a stoichiometry N [4] of 3.
